# Measured values reported in patent US20060257938A1, “Method of screening for drugs that block ligand binding to a lipid binding protein” (priority 2005, published 2006).
# Changes are numbered by the printed parent chain. Several values for one entry are separate records, joined by “and”; a condition that tells them apart may be missing. Equal entries are not always repeated.
# B1: 115N2, 72A (protein, listed as Rattus norvegicus)
# chain: AFDGTWKVDRNENYEKFMEKMGINVVKRKLGAHDNLKLTITQEGNKFTVKESSNFRNIDVVFELGVDFAYSAADGTELTGTWTMEGNKLVGKFKRVDNGKELIAVREISGNELINTYTYEGVEAKRIFKKE
# modifications: PEPTIDE (1)...(131) wild-type rat intestinal fatty acid binding protein
# B2: 78F, 72A (protein, listed as Rattus norvegicus)
# chain: B1 chain with L78F, N115Q
# modifications: PEPTIDE (1)...(131) wild-type rat intestinal fatty acid binding protein
# B3: 38Y, 72A (protein, listed as Rattus norvegicus)
# chain: B1 chain with L38Y, N115Q
# modifications: PEPTIDE (1)...(131) wild-type rat intestinal fatty acid binding protein
# B4: 38Q, 72A (protein, listed as Rattus norvegicus)
# chain: B1 chain with L38Q, N115Q
# modifications: PEPTIDE (1)...(131) wild-type rat intestinal fatty acid binding protein
# B5: 14W 72M 117A (protein, listed as Rattus norvegicus)
# chain: B1 chain with Y14W, A72M, N115Q, Y117A
# modifications: PEPTIDE (1)...(131) wild-type rat intestinal fatty acid binding protein
# B6: 36V, 72A (protein, listed as Rattus norvegicus)
# chain: B1 chain with L36V, N115Q
# modifications: PEPTIDE (1)...(131) wild-type rat intestinal fatty acid binding protein
# B7: 115T3, 72A (protein, listed as Rattus norvegicus)
# chain: B1 chain with N115T
# modifications: PEPTIDE (1)...(131) wild-type rat intestinal fatty acid binding protein
# B8: 115S1, 72A (protein, listed as Rattus norvegicus)
# chain: B1 chain with N115S
# modifications: PEPTIDE (1)...(131) wild-type rat intestinal fatty acid binding protein
# B9: 117D, 72A (protein, listed as Rattus norvegicus)
# chain: B1 chain with N115Q, Y117D
# modifications: PEPTIDE (1)...(131) wild-type rat intestinal fatty acid binding protein
# B10: 21Y, 72A (protein, listed as Rattus norvegicus)
# chain: B1 chain with M21Y, N115Q
# modifications: PEPTIDE (1)...(131) wild-type rat intestinal fatty acid binding protein
# B11: 117A, 72A (protein, listed as Rattus norvegicus)
# chain: B1 chain with N115Q, Y117A
# modifications: PEPTIDE (1)...(131) wild-type rat intestinal fatty acid binding protein
# B12: 38M, 72A (protein, listed as Rattus norvegicus)
# chain: B1 chain with L38M, N115Q
# modifications: PEPTIDE (1)...(131) wild-type rat intestinal fatty acid binding protein
# B13: 115Y1, 72A (protein, listed as Rattus norvegicus)
# chain: B1 chain with N115Y
# modifications: PEPTIDE (1)...(131) wild-type rat intestinal fatty acid binding protein
# B14: 115P1, 72A (protein, listed as Rattus norvegicus)
# chain: B1 chain with N115P
# modifications: PEPTIDE (1)...(131) wild-type rat intestinal fatty acid binding protein
# B15: 102C, 72A (protein, listed as Rattus norvegicus)
# chain: B1 chain with L102C, N115Q
# modifications: PEPTIDE (1)...(131) wild-type rat intestinal fatty acid binding protein
# B16: 38S, 72A (protein, listed as Rattus norvegicus)
# chain: B1 chain with L38S, N115Q
# modifications: PEPTIDE (1)...(131) wild-type rat intestinal fatty acid binding protein
# B17: 115R1, 72A (protein, listed as Rattus norvegicus)
# chain: B1 chain with N115R
# modifications: PEPTIDE (1)...(131) wild-type rat intestinal fatty acid binding protein
# B18: 115V2, 72A (protein, listed as Rattus norvegicus)
# chain: B1 chain with N115V
# modifications: PEPTIDE (1)...(131) wild-type rat intestinal fatty acid binding protein
# B19: 31Q, 72A (protein, listed as Rattus norvegicus)
# chain: B1 chain with G31Q, N115Q
# modifications: PEPTIDE (1)...(131) wild-type rat intestinal fatty acid binding protein
# B20: 38T, 72A (protein, listed as Rattus norvegicus)
# chain: B1 chain with L38T, N115Q
# modifications: PEPTIDE (1)...(131) wild-type rat intestinal fatty acid binding protein
# B21: 14M 72M 117A (protein, listed as Rattus norvegicus)
# chain: B1 chain with Y14M, A72M, N115Q, Y117A
# modifications: PEPTIDE (1)...(131) wild-type rat intestinal fatty acid binding protein
# B22: 62P, 72A (protein, listed as Rattus norvegicus)
# chain: B1 chain with F62P, N115Q
# modifications: PEPTIDE (1)...(131) wild-type rat intestinal fatty acid binding protein
# B23: 117C, 72A (protein, listed as Rattus norvegicus)
# chain: B1 chain with N115Q, Y117C
# modifications: PEPTIDE (1)...(131) wild-type rat intestinal fatty acid binding protein
# Test: Probe fluorescence ratio response to linoleic acid relative to ADIFAB2
# Format: binding
# Settings: response relative to ADIFAB2
# Procedure, shortened: (§1)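 Fluorescently labeled rat intestinal FABP variants were read at two emission wavelengths, near the unbound maximum (about 420 to 480 nm) and the FFA-bound maximum (about 495 to 580 nm). R = Fλ1/Fλ2 after subtracting probe-free intensity; ΔR = R+agent − R0, normalized to ADIFAB2 (rI-FABP-L72A).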
row,Molecule,DR/DR LA
1,B1,0.78
2,B2,1.955
3,B3,1.818
4,B4,1.936
5,B5,1.009
6,B6,1.062
7,B7,0.45
8,B8,1.51
9,B9,0.44 and 0.380
10,B10,2.015
11,B11,1.01 and 1.045
12,B12,1.805
13,B13,1.38
14,B14,1.37
15,B15,0.12
16,B16,1.286
17,B17,1.45
18,B18,0.87
19,B19,1.465
20,B20,1.577
21,B21,1.956
22,B22,1.572
23,B23,−0.19

# Test: Probe fluorescence ratio response to oleic acid relative to ADIFAB2
# Format: binding
# Settings: response relative to ADIFAB2
# Procedure, shortened: as §1
row,Molecule,DR/DR OA
1,B1,0.71
2,B2,1.912
3,B3,1.717
4,B4,1.842
5,B5,0.706
6,B6,0.869
7,B7,0.46
8,B8,1.41
9,B9,0.35 and 0.294
10,B10,1.982
11,B11,0.93 and 0.947
12,B12,1.630
13,B13,1.23
14,B14,1.26
15,B15,0.11
16,B16,1.235
17,B17,1.36
18,B18,0.91
19,B19,1.313
20,B20,1.547
21,B21,1.054
22,B22,1.448
23,B23,−0.24

# Test: Probe fluorescence ratio response to linolenic acid relative to ADIFAB2
# Format: binding
# Settings: response relative to ADIFAB2
# Procedure, shortened: as §1
row,Molecule,DR/DR LNA
1,B1,0.73
2,B2,2.033
3,B3,1.884
4,B4,1.986
5,B5,1.286
6,B6,1.082
7,B7,0.54
8,B8,1.51
9,B9,0.44 and 0.407
10,B10,1.881
11,B11,0.62 and 0.631
12,B12,1.697
13,B13,1.27
14,B14,1.35
15,B15,0.12
16,B16,1.295
17,B17,1.43
18,B18,0.93
19,B19,1.494
20,B20,1.639
21,B21,2.031
22,B22,1.581
23,B23,−0.13

# Test: Probe fluorescence ratio response to arachidonic acid relative to ADIFAB2
# Format: binding
# Settings: arachidonic acid; response relative to ADIFAB2
# Procedure, shortened: as §1
row,Molecule,DR/DR AA
1,B1,0.92
2,B2,2.001
3,B3,2.081
4,B4,1.976
5,B5,0.945
6,B6,1.026
7,B7,0.57
8,B8,1.55
9,B9,0.41 and 0.352
10,B10,2.378
11,B11,1.27 and 1.332
12,B12,1.850
13,B13,1.42
14,B14,−0.17
15,B15,0.14
16,B16,1.175
17,B17,1.40
18,B18,0.84
19,B19,1.024
20,B20,1.598
21,B21,1.649
22,B22,1.548
23,B23,−0.17

# Test: Probe fluorescence ratio response to palmitic acid relative to ADIFAB2
# Format: binding
# Settings: response relative to ADIFAB2
# Procedure, shortened: as §1
row,Molecule,DR/DR PA
1,B1,0.56
2,B2,1.416
3,B3,1.518
4,B4,1.551
5,B5,0.515
6,B6,0.713
7,B7,0.49
8,B8,0.77
9,B9,0.17 and 0.142
10,B10,1.094
11,B11,0.32 and 0.331
12,B12,1.131
13,B13,0.73
14,B14,0.70
15,B15,0.09
16,B16,0.724
17,B17,0.70
18,B18,0.85
19,B19,1.039
20,B20,1.022
21,B21,0.870
22,B22,1.247
23,B23,−0.12
